Data on 4 proteins can be found in article PMC11088703, “Structural basis of human NOX5 activation” (Nature Communications, 2024).

Data set [1] concerns the molecule itself. Briefly: cryo-EM structure; purified NOX5 in 0.05% digitonin; pre-reaction (5 mM EGTA + 1 mM NADPH), intermediate (1 mM CaCl2 + 1 mM NADPH) and post-reaction (1 mM CaCl2 + 1.2 mM NADP+ + 60 uM FAD) states; C2 symmetry imposed.
Data set [2] concerns the molecule itself. Briefly: SEC; Trp fluorescence-based gel filtration; Superose 6 Increase; 20 mM Tris pH 8.0, 200 mM NaCl, 0.004% LMNG/CHS; excitation 280 nm, emission 350 nm. In general terms: In gel filtration, larger molecules generally elute earlier.

The stoichiometry N is the number of molecules, sites or subunits per partner or assembly.

B1: full-length human NADPH oxidase 5 (NOX5), NOX5-β variant (enzyme, UniProt Q96PH1-4 1-719, looked up)
chain: MSAEEDARWLRWVTQQFKTIAGEDGEISLQEFKAALHVKESFFAERFFALFDSDRSGTITLQELQEALTLLIHGSPMDKLKFLFQVYDIDGSGSIDPDELRTVLQSCLRESAISLPDEKLDQLTLALFESADADGNGAITFEELRDELQRFPGVMENLTISAAHWLTAPAPRPRPRRPRQLTRAYWHNHRSQLFCLATYAGLHVLLFGLAASAHRDLGASVMVAKGCGQCLNFDCSFIAVLMLRRCLTWLRATWLAQVLPLDQNIQFHQLMGYVVVGLSLVHTVAHTVNFVLQAQAEASPFQFWELLLTTRPGIGWVHGSASPTGVALLLLLLLMFICSSSCIRRSGHFEVFYWTHLSYLLVWLLLIFHGPNFWKWLLVPGILFFLEKAIGLAVSRMAAVCIMEVNLLPSKVTHLLIKRPPFFHYRPGDYLYLNIPTIARYEWHPFTISSAPEQKDTIWLHIRSQGQWTNRLYESFKASDPLGRGSKRLSRSVTMRKSQRSSKGSEILLEKHKFCNIKCYIDGPYGTPTRRIFASEHAVLIGAGIGITPFASILQSIMYRHQKRKHTCPSCQHSWIEGVQDNMKLHKVDFIWINRDQRSFEWFVSLLTKLEMDQAEEAQYGRFLELHMYMTSALGKNDMKAIGLQMALDLLANKEKKDSITGLQTRTQPGRPDWSKVFQKVAAEKKGKVQVFFCGSPALAKVLKGHCEKFGFRFFQENF
notes: NADPH oxidase 5, human, NOX5-β variant (called v2 isoform in the methods); full length; a Zn2+ is modelled between the two CXXC motifs at the dimer interface; also called NOX5 v2 isoform; hNOX5; source: HEK293F, BacMam virus, purified (GFP-nanobody beads, preScission cleavage, Superose 6 SEC in digitonin); not shown: GFP, N-terminal, cleaved
For the protein B1, in data set [1], the “stoichiometry N” value came to 2.

B2: NOX5 R531A (enzyme, human, UniProt Q96PH1-4 1-719, looked up)
chain: MSAEEDARWLRWVTQQFKTIAGEDGEISLQEFKAALHVKESFFAERFFALFDSDRSGTITLQELQEALTLLIHGSPMDKLKFLFQVYDIDGSGSIDPDELRTVLQSCLRESAISLPDEKLDQLTLALFESADADGNGAITFEELRDELQRFPGVMENLTISAAHWLTAPAPRPRPRRPRQLTRAYWHNHRSQLFCLATYAGLHVLLFGLAASAHRDLGASVMVAKGCGQCLNFDCSFIAVLMLRRCLTWLRATWLAQVLPLDQNIQFHQLMGYVVVGLSLVHTVAHTVNFVLQAQAEASPFQFWELLLTTRPGIGWVHGSASPTGVALLLLLLLMFICSSSCIRRSGHFEVFYWTHLSYLLVWLLLIFHGPNFWKWLLVPGILFFLEKAIGLAVSRMAAVCIMEVNLLPSKVTHLLIKRPPFFHYRPGDYLYLNIPTIARYEWHPFTISSAPEQKDTIWLHIRSQGQWTNRLYESFKASDPLGRGSKRLSRSVTMRKSQRSSKGSEILLEKHKFCNIKCYIDGPYGTPTRAIFASEHAVLIGAGIGITPFASILQSIMYRHQKRKHTCPSCQHSWIEGVQDNMKLHKVDFIWINRDQRSFEWFVSLLTKLEMDQAEEAQYGRFLELHMYMTSALGKNDMKAIGLQMALDLLANKEKKDSITGLQTRTQPGRPDWSKVFQKVAAEKKGKVQVFFCGSPALAKVLKGHCEKFGFRFFQENF
notes: NADPH oxidase 5, human, NOX5-β variant (v2 isoform in the methods; UniProt Q96PH1-4), point mutant; source: HEK293F, purified with the same protocol as NOX5 wild type (GFP-nanobody beads, preScission cleavage); not shown: GFP, N-terminal, cleaved
Consider B2, for which the binding result in data set [2] is listed as “binds”.

B3: NOX5 R530A (enzyme, human, UniProt Q96PH1-4 1-719, looked up)
chain: MSAEEDARWLRWVTQQFKTIAGEDGEISLQEFKAALHVKESFFAERFFALFDSDRSGTITLQELQEALTLLIHGSPMDKLKFLFQVYDIDGSGSIDPDELRTVLQSCLRESAISLPDEKLDQLTLALFESADADGNGAITFEELRDELQRFPGVMENLTISAAHWLTAPAPRPRPRRPRQLTRAYWHNHRSQLFCLATYAGLHVLLFGLAASAHRDLGASVMVAKGCGQCLNFDCSFIAVLMLRRCLTWLRATWLAQVLPLDQNIQFHQLMGYVVVGLSLVHTVAHTVNFVLQAQAEASPFQFWELLLTTRPGIGWVHGSASPTGVALLLLLLLMFICSSSCIRRSGHFEVFYWTHLSYLLVWLLLIFHGPNFWKWLLVPGILFFLEKAIGLAVSRMAAVCIMEVNLLPSKVTHLLIKRPPFFHYRPGDYLYLNIPTIARYEWHPFTISSAPEQKDTIWLHIRSQGQWTNRLYESFKASDPLGRGSKRLSRSVTMRKSQRSSKGSEILLEKHKFCNIKCYIDGPYGTPTARIFASEHAVLIGAGIGITPFASILQSIMYRHQKRKHTCPSCQHSWIEGVQDNMKLHKVDFIWINRDQRSFEWFVSLLTKLEMDQAEEAQYGRFLELHMYMTSALGKNDMKAIGLQMALDLLANKEKKDSITGLQTRTQPGRPDWSKVFQKVAAEKKGKVQVFFCGSPALAKVLKGHCEKFGFRFFQENF
notes: as for B2
For B3, the binding result in data set [2] is “binds”.

B4: NOX5 R426A (enzyme, human, UniProt Q96PH1-4 1-719, looked up)
chain: MSAEEDARWLRWVTQQFKTIAGEDGEISLQEFKAALHVKESFFAERFFALFDSDRSGTITLQELQEALTLLIHGSPMDKLKFLFQVYDIDGSGSIDPDELRTVLQSCLRESAISLPDEKLDQLTLALFESADADGNGAITFEELRDELQRFPGVMENLTISAAHWLTAPAPRPRPRRPRQLTRAYWHNHRSQLFCLATYAGLHVLLFGLAASAHRDLGASVMVAKGCGQCLNFDCSFIAVLMLRRCLTWLRATWLAQVLPLDQNIQFHQLMGYVVVGLSLVHTVAHTVNFVLQAQAEASPFQFWELLLTTRPGIGWVHGSASPTGVALLLLLLLMFICSSSCIRRSGHFEVFYWTHLSYLLVWLLLIFHGPNFWKWLLVPGILFFLEKAIGLAVSRMAAVCIMEVNLLPSKVTHLLIKRPPFFHYAPGDYLYLNIPTIARYEWHPFTISSAPEQKDTIWLHIRSQGQWTNRLYESFKASDPLGRGSKRLSRSVTMRKSQRSSKGSEILLEKHKFCNIKCYIDGPYGTPTRRIFASEHAVLIGAGIGITPFASILQSIMYRHQKRKHTCPSCQHSWIEGVQDNMKLHKVDFIWINRDQRSFEWFVSLLTKLEMDQAEEAQYGRFLELHMYMTSALGKNDMKAIGLQMALDLLANKEKKDSITGLQTRTQPGRPDWSKVFQKVAAEKKGKVQVFFCGSPALAKVLKGHCEKFGFRFFQENF
notes: as for B2
B4: in data set [2], the binding result is given as “binds”.
